From publication PMC8733265, “Microscale thermophoresis suggests a new model of regulation of cardiac myosin function via interaction with cardiac myosin-binding protein C” (The Journal of Biological Chemistry, 2021)

Experiments:
[1] = target: T1, C0C2-3P, tris-phosphorylated C0C2 (UniProt Q14896 1-452, tris-phosphorylated by PKA (m-motif; sites not given)); assay: MST; Monolith NT.115; 100 nmol/l Alexa647-labelled protein fixed, partner titrated; 20 mmol/l Mops pH 7, 1 mmol/l MgCl2, 50 mmol/l KCl, 1 mmol/l DTT, 0.05% Tween-20; settings: both partners purified
T1 construct: not shown: His tag, N-terminal, cleaved

[2] = target: T2, C0C2, cMyBP-C spanning domains C0 to C2 (UniProt Q14896 1-452); assay: as above; settings: both partners purified
T2 construct: also called N-terminal domains (NTD) of cMyBP-C; C0-P/A-C1-m-C2; source: E. coli BL21(DE3)-RIPL, purified (HisTrapFF, TEV, ion exchange); not shown: His tag, N-terminal, cleaved
T2 sequence (Q14896 1-452): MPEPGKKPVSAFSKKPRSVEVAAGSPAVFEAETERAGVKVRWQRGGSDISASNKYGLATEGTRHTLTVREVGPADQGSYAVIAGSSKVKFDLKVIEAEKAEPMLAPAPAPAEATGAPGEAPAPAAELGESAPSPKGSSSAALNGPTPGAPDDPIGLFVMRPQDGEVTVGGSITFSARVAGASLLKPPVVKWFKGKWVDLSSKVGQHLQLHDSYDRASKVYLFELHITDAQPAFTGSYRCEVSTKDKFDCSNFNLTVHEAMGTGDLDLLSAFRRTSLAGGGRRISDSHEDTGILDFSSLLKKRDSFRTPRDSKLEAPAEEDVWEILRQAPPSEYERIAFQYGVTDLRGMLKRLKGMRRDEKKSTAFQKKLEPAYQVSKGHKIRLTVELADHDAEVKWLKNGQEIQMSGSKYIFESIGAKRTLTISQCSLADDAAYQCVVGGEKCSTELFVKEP

T1 sequence (Q14896 1-452): as above

Kd [1]: 5 µM
Kd [2]: 2700 nM
B1: phospho-miniHMM (miniHMM phosphorylated in vitro by cMLCK) (complex)
chain 1: RDSLLVIQWNIRAFMGVKNWPWMKLYFKIKPLLKSAEREKEMASMKEEFTRLKEALEKSEARRKELEEKMVSLLQEKNDLQLQVQAEQDNLADAEERCDQLIKNKIQLEAKVKEMNERLEDEEEMNAELTAKKRKLEDECSELKRDIDDLELTLAK
chain 2: APKKAKKRAGGANSNVFSMFEQTQIQEFKEAFTIMDQNRDGFIDKNDLRDTFAALGRVNVKNEEIDEMIKEAPGPINFTVFLTMFGEKLKGADPEETILNAFKVFDPEGKGVLKADYVREMLTTQAERFSKEEVDQMFAAFPPDVTGNLDYKNLVHIITHGEEKD
modifications: phosphorylated by cMLCK to about 1 mol Pi/mol RLC (site not given)
